Assay results taken from patent publication CN117396514A (ELEKTA S R L, dated 2024).

T1: 人MerTK, M2c分化的人巨噬细胞上 (human, UniProt Q12866 21-999)
T1 sequence: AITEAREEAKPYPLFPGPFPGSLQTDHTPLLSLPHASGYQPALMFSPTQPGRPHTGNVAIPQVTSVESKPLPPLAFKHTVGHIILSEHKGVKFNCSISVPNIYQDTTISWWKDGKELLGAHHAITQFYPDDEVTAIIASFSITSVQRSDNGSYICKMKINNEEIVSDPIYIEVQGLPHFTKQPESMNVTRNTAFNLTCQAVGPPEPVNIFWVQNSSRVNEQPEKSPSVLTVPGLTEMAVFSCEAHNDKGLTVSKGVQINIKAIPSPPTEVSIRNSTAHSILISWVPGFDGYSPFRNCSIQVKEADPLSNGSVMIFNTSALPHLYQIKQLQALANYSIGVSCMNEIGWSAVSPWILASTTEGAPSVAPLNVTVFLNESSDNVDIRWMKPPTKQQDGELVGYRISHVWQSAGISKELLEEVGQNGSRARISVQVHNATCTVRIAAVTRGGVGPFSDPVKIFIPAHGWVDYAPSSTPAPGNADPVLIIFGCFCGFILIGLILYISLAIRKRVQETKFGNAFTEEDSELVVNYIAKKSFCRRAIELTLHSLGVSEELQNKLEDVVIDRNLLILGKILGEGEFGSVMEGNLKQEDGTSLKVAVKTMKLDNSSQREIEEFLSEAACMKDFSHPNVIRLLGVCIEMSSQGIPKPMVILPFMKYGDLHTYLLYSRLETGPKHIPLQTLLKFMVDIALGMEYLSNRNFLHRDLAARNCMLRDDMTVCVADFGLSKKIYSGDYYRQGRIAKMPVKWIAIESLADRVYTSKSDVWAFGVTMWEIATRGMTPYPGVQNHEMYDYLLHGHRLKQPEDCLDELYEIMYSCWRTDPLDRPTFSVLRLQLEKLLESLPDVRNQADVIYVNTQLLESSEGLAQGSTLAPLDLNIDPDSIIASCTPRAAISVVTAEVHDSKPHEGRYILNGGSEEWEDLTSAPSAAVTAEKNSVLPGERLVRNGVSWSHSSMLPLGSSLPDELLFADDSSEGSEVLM

B1: 单价(单臂)抗MerTK抗体MTK-33.11 (Fc LALAPS) (antibody, V domains shown)
VH: QVQLVQSGAEVKKPGASVKVSCKASGYTFTSYWMHWVRQAPGQGLEWIGVIDPSDNYINYNQKFQGRVTMTRDTSTSTVYMELSSLRSEDTAVYYCAREAWTRGYFDYWGQGTLVTVSS
VL: DIQMTQSPSSLSASVGDRVTITCQASRSVRNTVAWYQQKPGKAPKLLIYYASNRYTGVPSRFSGSGSGTDFTFTISSLQPEDIATYYCQQDYRSPFTFGQGTKLEIK
modifications: Dylight650 conjugate in the FACS binding assay (site not stated)
B2: 单价(单臂)抗MerTK抗体MTK-16.2 (Fc LALAPS) (antibody, V domains shown)
VH: QVQLVQSGSELKKPGASVKVSCKASGYTFTNHGMNWVRQAPGQGLEWMGWINTYTGEPTYADDFKGRFVFSLDTSVSTAYLQISSLKAEDTAVYYCARKGVTAARYFDYWGQGTLVTVSS
VL: DIQMTQSPSSLSASVGDRVTITCRASQNVRTAVAWYQQKPGKAPKRLIYLASNRHTGVPSRFSGSGSGTEFTLTISNLQPEDFATYYCLQHWNYPLTFGGGTKLEIK
modifications: Dylight650 conjugate in the FACS binding assay (site not stated)
B3: 二价(全IgG)抗MerTK抗体MTK-16.2 (Fc LALAPS) (antibody, V domains shown)
VH: QVQLVQSGSELKKPGASVKVSCKASGYTFTNHGMNWVRQAPGQGLEWMGWINTYTGEPTYADDFKGRFVFSLDTSVSTAYLQISSLKAEDTAVYYCARKGVTAARYFDYWGQGTLVTVSS
VL: DIQMTQSPSSLSASVGDRVTITCRASQNVRTAVAWYQQKPGKAPKRLIYLASNRHTGVPSRFSGSGSGTEFTLTISNLQPEDFATYYCLQHWNYPLTFGGGTKLEIKR
modifications: Dylight650 conjugate in the FACS binding assay (site not stated)

How the values were obtained:
[1] = target: T1, 人MerTK, M2c分化的人巨噬细胞上; assay: cell-based or functional assay
[2] = target: T1, 人MerTK, M2c分化的人巨噬细胞上; assay: FACS, Dylight650-conjugated antibody titrated on M2c differentiated human macrophages; Kd from MFI by Prism (EC50-like)

Row | Binder | 胞葬作用 IC50 (efferocytosis of pHrodo-labelled apoptotic Jurkat cells by M2c human macrophages) [1] [nM] | Kd [2] [nM]
1 | B1 | ~4.4 | 
2 | B2 | 37.9 | ~78
3 | B3 | 0.436 | ~52
